Assay [1] deals with T1, human FcγRIIIA 158F extracellular domain (human, UniProt P08637 17-199, site directed biotinylated with BirA (Avi tag)).
T1 construct: range 17-199; not shown: 4-amino acid purification tag (4APP; Novartis)
Nature of the assay: SPR (T100), biotinylated receptor on streptavidin chip, equilibrium binding, 1:1 model. The source says: (§1) Extracellular domains of human FcγRIIIA tagged with a 4-amino acid purification tag (4APP; Novartis) and an Avi biotinylation tag ([…]; Avidity) were synthesized by Geneart: human FcγRIIIA (CD16a) 158V (Uniprot: P08637, 17-199), human FcγRIIIA 158F (Uniprot: P08637, 17-199), expressed in HEK293 cells and purified with anti-4APP affinity chromatography. Receptors were site directed biotinylated with BirA (Avidity), bound to streptavidin sensor chips (General Electric), and the equilibrium-binding levels of the different Abs were analyzed by surface plasmon resonance (T100, General Electric) as described (Warncke et al. 2012). Equilibrium dissociation constants (KD) were calculated by a 1:1 model.

The target of assay [2] is T2, recombinant human CD40 (human, UniProt P25942 21-193).
T2 construct: Soluble analyte in SPR; also called CD40 antigen
T2 sequence (P25942 21-193 limits assumed): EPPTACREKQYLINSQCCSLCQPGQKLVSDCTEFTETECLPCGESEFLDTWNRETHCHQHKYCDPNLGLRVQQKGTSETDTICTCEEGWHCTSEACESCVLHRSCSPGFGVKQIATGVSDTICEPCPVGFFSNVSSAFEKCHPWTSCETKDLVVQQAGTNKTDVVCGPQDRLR
Nature of the assay: SPR (Biacore T100), antibody captured on Protein A, CD40 as analyte, 25 °C, 1:1 model. The source says:
A typical binding analysis cycle consisted of three steps: (i) capture of the antibody via ProteinA immobilized on the chip surface, (ii) binding of CD40 antigen to the captured anti-CD40 antibody, and (iii) regeneration of the ProteinA surface. To determine the kinetic rate constants of the antigen-antibody binding interactions, binding data were processed, double referenced with responses from blank injections. The binding curves were fitted locally using the 1:1 interaction model of the Biacore T100 Evaluation software to determine kinetic rate constants. The value for the equilibrium dissociation constant (KD) was calculated as the ratio of the rate constants kd/ka. All binding measurements were performed in two independent experiments.
For orientation: Surface plasmon resonance follows binding to a sensor surface in real time, without labels.

The target in assay [3] is T3, human CD40 on cells (CD20+ B cells of whole blood/PBMCs, tonsil B cells, moDCs, RI-1 B cell line) (human, UniProt P25942 21-277).
T3 construct: Endogenous CD40 on human cells; also called CD40 receptor
T3 sequence (P25942 21-277 limits assumed): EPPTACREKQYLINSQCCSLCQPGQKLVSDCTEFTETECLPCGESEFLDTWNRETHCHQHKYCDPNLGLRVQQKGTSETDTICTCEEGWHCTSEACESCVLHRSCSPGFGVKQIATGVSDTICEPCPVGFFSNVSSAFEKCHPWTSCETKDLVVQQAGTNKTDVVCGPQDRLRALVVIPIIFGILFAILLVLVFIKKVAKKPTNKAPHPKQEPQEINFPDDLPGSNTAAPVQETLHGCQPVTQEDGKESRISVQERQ
Nature of the assay: flow cytometry, CD40 occupancy by CFZ533 (MFI EC50 on CD20+ cells), human, n = 4; human CD20+ cells, n = 4. A general note: A flow cytometer gives signals particle by particle.

Assay [4] concerns the target T3, human CD40 on cells (CD20+ B cells of …). Nature of the assay: flow cytometry, CD40 occupancy by CFZ533 (MFI EC50 on CD20+ cells), human, n = 4.
For assay [5] the target is unchanged. Nature of the assay: cell-based or functional assay.
The target of assay [6] is T4, cynomolgus monkey CD40 on CD20+ B cells (cynomolgus, UniProt G7PG38 21-278). Nature of the assay: cell-based or functional assay.
The target in assay [7] is T5, rhesus monkey CD40 on CD20+ B cells (rhesus, UniProt F6SNI1 21-278). Nature of the assay: cell-based or functional assay.
Assay [8] deals with T1, human FcγRIIIA 158F extracellular domain. Nature of the assay: SPR, biotinylated receptor on streptavidin chip, equilibrium binding.
Description: as §1

In assay [9] the target is T6, human FcγRIIIA (CD16a) 158V extracellular domain (human, UniProt P08637 17-199, site directed biotinylated with BirA (Avi tag)).
T6 construct: range 17-199; 158 is the usual mature numbering of the V/F allotype; also called Human FcγRIIIA 158V; not shown: 4-amino acid purification tag (4APP; Novartis)
T6 sequence (P08637 other isoform, or with tags, fused parts or gaps): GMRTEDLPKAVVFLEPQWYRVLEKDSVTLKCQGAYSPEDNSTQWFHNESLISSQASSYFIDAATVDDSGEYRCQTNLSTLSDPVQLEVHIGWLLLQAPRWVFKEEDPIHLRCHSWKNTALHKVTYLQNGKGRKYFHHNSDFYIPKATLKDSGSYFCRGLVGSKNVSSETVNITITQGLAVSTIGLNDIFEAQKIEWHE
The assay is described as above.
Description: as §1

Assay [10] has as its target T4, cynomolgus monkey CD40 on CD20+ B cells. Nature of the assay: flow cytometry, CD40 occupancy by CFZ533 (MFI EC50 on CD20+ cells), cynomolgus, n = 4.
The target of assay [11] is T3, human CD40 on cells (CD20+ B cells of …). Nature of the assay: cell-based or functional assay. The source holds these as a separate data set.
Assay [12] shares this target. Nature of the assay: cell-based or functional assay. The source holds these as a separate data set.
Assay [13] has as its target T5, rhesus monkey CD40 on CD20+ B cells. Nature of the assay: flow cytometry, CD40 occupancy by CFZ533 (MFI EC50 on CD20+ cells), rhesus, n = 6.

The results in this text go back to patent US20210079107A1 (Novartis, published 2021).

“And” between values parts separate entries of the source, which are not always exact repeats. Equal values may be shown once.

T1 sequence (P08637 other isoform, or with tags, fused parts or gaps): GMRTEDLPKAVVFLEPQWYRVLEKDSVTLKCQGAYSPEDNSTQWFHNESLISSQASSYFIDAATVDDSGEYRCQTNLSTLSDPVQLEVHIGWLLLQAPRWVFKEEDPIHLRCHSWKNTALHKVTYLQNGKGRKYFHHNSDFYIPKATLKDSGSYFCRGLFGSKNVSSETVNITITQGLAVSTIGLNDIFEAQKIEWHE

B1: HCD122 (wild-type IgG1 version of CFZ533) (antibody)
heavy: not shown
light: DIVMTQSPLSLTVTPGEPASISCRSSQSLLYSNGYNYLDWYLQKPGQSPQVLISLGSNRASGVPDRFSGSGSGTDFTLKISRVEAEDVGVYYCMQARQTPFTFGPGTKVDIRRTVAAPSVFIFPPSDEQLKSGTASVVCLLNNFYPREAKVQWKVDNALQSGNSQESVTEQDSKDSTYSLSSTLTLSKADYEKHKVYACEVTHQGLSSPVTKSFNRGEC
notes: it calls it the parental antibody and the wild-type IgG1 version of CFZ533 (N297A IgG1); It is built here as the CFZ533 chains with Asn in place of the Ala of N297A; 297 is a constant-region number; also called parental antibody
Broadly, the Kd is a measure of binding affinity in units of concentration. Broadly, the koff is the rate constant with which the complex falls apart. As usually defined, the kon is the rate constant with which the complex forms. Take B1: the Ka in assay [1] was 699000 M⁻¹. Further, in assay [2], the Kd amounted to 467 pM, the koff came to 0.000126 s⁻¹ and the kon turned out to be 284000 M⁻¹ s⁻¹.

B2: CFZ533 (antibody, human IgG1, kappa, N297A)
heavy: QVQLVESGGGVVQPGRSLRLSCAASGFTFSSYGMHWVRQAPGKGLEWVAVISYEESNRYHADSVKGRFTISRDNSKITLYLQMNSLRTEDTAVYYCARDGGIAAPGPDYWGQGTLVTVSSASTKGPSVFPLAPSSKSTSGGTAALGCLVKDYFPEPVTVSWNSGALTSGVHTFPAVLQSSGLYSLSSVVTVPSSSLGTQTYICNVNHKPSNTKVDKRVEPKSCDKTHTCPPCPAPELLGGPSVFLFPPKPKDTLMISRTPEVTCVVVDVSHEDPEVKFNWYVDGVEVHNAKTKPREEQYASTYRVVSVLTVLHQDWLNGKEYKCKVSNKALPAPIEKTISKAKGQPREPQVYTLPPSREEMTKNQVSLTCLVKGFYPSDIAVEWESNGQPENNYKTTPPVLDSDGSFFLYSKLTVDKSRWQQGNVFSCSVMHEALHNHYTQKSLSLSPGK
light: B1 light
notes: In the receptor occupancy and internalisation assays it was labelled with AlexaFluor 488; also called mAb1; iscalimab
As a reminder, the EC50 is the concentration at which the effect is half-maximal. Turning to B2, the EC50 in assay [3] worked out at 1490 pM; in assay [4], 0.22 µg/mL; in assay [10], 0.2 µg/mL; in assay [13], 0.22 µg/mL. Moreover, the “Inhibition of rCD154-induced proliferation (IC50 PBMCs)” value in assay [5] came to 0.017 µg/mL; in assay [6], 0.01 µg/mL; in assay [7], 0.026 µg/mL. Further, the binding result in [8] and in assay [9] was “no binding” in each case. Moreover, the Kd in assay [2] came out at 305 pM. For the same molecule, the koff in assay [2] was found to be 9.3e-05 s⁻¹. The kon in assay [2] turned out to be 313000 M⁻¹ s⁻¹. In [11], the “IC50 (read off the curve): rCD154-induced CD69 expression on CD20pos B cells, human whole blood” value was roughly 0.1 µg/mL. The “IC50, rCD154-induced TNF production by primary monocyte-derived dendritic cells (moDCs)” value in assay [12] was 0.04 µg/ml and 0.27 nM. In assay [12], the “IC50, rCD154-induced proliferation of human whole blood cultures” value is 0.024 µg/ml and 0.16 nM. For the same molecule, the “IC50, rCD154-induced proliferation of purified tonsillar B cells” value in assay [12] was 0.47 nM and 0.071 µg/ml.
